System: MS2 coat protein
Assay: apparent KD of MS2 coat protein; designed switch direction (-1 OFF switch, 1 ON switch): -1; higher = weaker reporter binding
How it was run: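 Designed RNA switches with common flanks were transcribed on Illumina chips by stalled E. coli RNA polymerase and titrated with SNAP-549-labelled MS2 coat protein, from 0.7 or 1.5 nM doubling to 3 µM, in Tris-HCl pH 7.5 buffer with KCl, MgCl2, BSA, DTT, tRNA and Tween-20. Steps lasted 0.8–1.5 h (lowest) to 10–20 min (highest). Titrations ran without input, with 200 uM small-molecule ligand, or with an oligonucleotide input. Normalised cluster fluorescence was curve-fitted, and apparent KD is the per-design median over clusters.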

[1] = input ligand: microRNA oligo, concentration not stated
[2] = Eterna round: R95, input ligand: FMN 200 uM
[3] = Eterna round: R95, input ligand: microRNA oligo, concentration not stated
[4] = Eterna round: R95, input ligand: none

| Sequence | apparent KD of MS2 coat protein (input ligand: FMN 200 uM) [nM] | apparent KD of MS2 coat protein [1] [nM] | apparent KD of MS2 coat protein (input ligand: none) [nM] | apparent KD of MS2 coat protein [2] [nM] | apparent KD of MS2 coat protein [3] [nM] | apparent KD of MS2 coat protein [4] [nM] |
| --- | --- | --- | --- | --- | --- | --- |
| AGUCAGGCGGUAGGAUAUCCAAACCGAGUGACCCUUUCAUAACAUGAGGAUCACCCAUGUCGGUGGGAGAAGGGCCGUACGGCA [Mat - Exclusion NG 2 - Mod of JL - D65] (Eterna round: R96, puzzle: Exclusion NG 2) | 410 | 173 | 159 | – | – | – |
| UGGCUGCUCAGGGAGUGUGACAUGAGGAUCACCCAUGUGGUGGUAGGGAACAAGCUUUUUGCACGUACUUAUGAGUC [JR_SV3TOV1_Sub009] (puzzle: Sensor v3, turn-off variant 1) | – | – | – | 840 | 107 | 388 |
| GAGUGACAUGAGGAUCACCCAUGUGAGGAUAUCGGACGGACCAAAUUAACAACAACCGCGAGAAGGCACAUCGG [Exclusion 1 V20] (puzzle: Exclusion 1) | – | – | – | – | 112 | – |
| GCCAGAGCAGGAUAUUCAAUAAUUCACAUGAGGAUCACCCAUGUCGAGCGAAAGCUCGAGGGAGAAGGGCUCUGGC [Fiskers Ex 5 - 6] (puzzle: Exclusion 5) | – | – | – | 14.3 | 34.8 | 39.4 |
| GUAAGAUCCGUCAGGAUAUAUGCCCAAGGAGGGACGUAGAAGGGACAUGAGGAUCACCCAUGUACCUCAAGGAU [Eternabot (L1) Solution 97] (Eterna round: R97, puzzle: Brourd's mod of Exclusion 4) | 17.6 | – | 16.1 | – | – | – |
| CUGCUCCGUGUAGGAUAUCCGCGCAACCAAUGCGGAGAAGGACAUGAGGAUCACCCAUGUAUGUUAUUAUCACGUGAAGCGUCC [Design 26] (Eterna round: R96, puzzle: Exclusion NG 1) | 24.8 | 13.7 | 24.8 | – | – | – |
| GAAAAGGUAGGAUAUACGAUAAAAAAGGGUAGAAAAAAAACACAUGAGGAUCACCCAUGUAGAAGGACCAAAAG [salish99_ex2_r3_086] (puzzle: Exclusion 2) | – | – | – | 95.2 | 20.7 | 30 |
| UCAAAAUAGUCAGGAUAUGCAGAUUCAGCGUCCGCAGAAGGGACAGUGGGCUGGUCCGACACAUGAGGAUCACCCAUGUAAAAG [Teerreanor] (Eterna round: R96, puzzle: Exclusion NG 1) | 260 | 140 | 109 | – | – | – |
| AAUAACAGAGGAUAUACUAUUUUAUGUAUUUAUUAUUUUAAACAUGAGGAUCACCCAUGUAGAAGGCUGAAUGA [JMF 54] (puzzle: Exclusion 2) | – | – | – | 20.6 | 21.6 | 21.5 |
| AUACCACGAGGAUAUCGUCUAUUCCACAUGAGGAUCACCCAUGUUAUCCAUGUUUCGUUUCGAGAAGGCGUGGGUU [JR_E5_Sub074] (puzzle: Exclusion 5) | – | – | – | – | 45.9 | – |
| UUAAAUCAUGUAGGAUAUGCGUGGAGAAGCUAUGCAGAAGGACAUGAGGAUCACCCAUGUGCUUCCGUCUGCGUACAGAUGGUA [Mat - Exclusion NG 1 - Mod of JL - D7] (Eterna round: R96, puzzle: Exclusion NG 1) | 84.5 | 17.1 | 19.5 | – | – | – |
| AGUAUCUGAGGAUAUUGAGUUAUCUACAUGAGGAUCACCCAUGUUGUAUGUGUAGAAGCACGAGAAGGCAGAUACA [Eternabot (L2) Solution 1] (Eterna round: R97, puzzle: Exclusion 5) | 395 | – | 102 | – | – | – |
| GUAUAACAUGUAGGAUAUGCGUGGCGAAGCUAUGCAGAAGGACAUGAGGAUCACCCAUGUUAUAGCGUCUGCGUACAGAUGCUA [Mat - Exclusion NG 1 - Mod of JL - D93] (Eterna round: R96, puzzle: Exclusion NG 1) | 204 | 26.2 | 24.5 | – | – | – |
| GUCUUGUCAGGAUAUCUUACAUAACAAUCGUAGUUACAAUUGGAGAAGGGACAUGAGGAUCACCCAUGUUAGCA [tap-tap-tappy36] (Eterna round: R97, puzzle: Exclusion 4) | 26.5 | – | 26.9 | – | – | – |
| GGUCAGAUGGUAGGAUAUCCAUAUUGAGUGACCCUUUCAUAACAUGAGGAUCACCCAUGUCGGUGGGAGAAGGGCCGUACGGCG [salish99_ExNG02_R04_015] (Eterna round: R96, puzzle: Exclusion NG 2) | 176 | 71.2 | 114 | – | – | – |
| CGCGUUUAUGUAGGAUAUGCCUGGCGUGCCUUAGCAGAAGGACAUGAGGAUCACCCAUGUAACAUGAGGCUCACCCAUGUCGCA (Eterna round: R96, puzzle: Exclusion NG 1) | 201 | 120 | 167 | – | – | – |
| ACCUUAAAAGUGAGGAUAUCUAGGGCCAAAUGGCCGGAGAAGGCACAUGAGGAUCACCCAUGUAACGCCAUGGA [Beinat] (puzzle: Brourd's mod of Exclusion 4) | – | – | – | – | 13.9 | – |
| AGAGUGCUGCGAGGAUAUACAUGAGGAUCACCCAUGUAAAAGUGUGAGGCAAAGCCUCACACGAAGUAGAAGGCGCAGUACUCA [Mat - Exclusion NG 2 - Mod of JL - D34] (Eterna round: R96, puzzle: Exclusion NG 2) | 12.8 | 9.85 | 25.2 | – | – | – |
| ACAUGAGGAUCACCCAUGUUAGGUUGGUUUUCUCCGGCUGUUGAGGAUAUAGUCCGGUAUCCGCGCUAGAAGGUGAGGGUUGGC [Aenatbe mod 9] (Eterna round: R96, puzzle: Exclusion NG 3) | 61.9 | 60 | 64.9 | – | – | – |
| CCUCUACAUGAGGAUCACCCAUGUGAGGAUAUCCUGCGAGGAUCAAAAGAUCCUCGUGGGAGAAGGCAUAUGAU [Omei Ex1 A3] (Eterna round: R97, puzzle: Exclusion 1) | 36.5 | – | 26.6 | – | – | – |
| GCGCUGUCAGGAUAUGUGUGUGUGUGUGAAAGCGCGCGCGCGCAGAAGGGACAUGAGGAUCACCCAUGUGGUGU [-31.2, -30.2 kcal, A 20%, 6bis-6bis] (Eterna round: R97, puzzle: Exclusion 4) | 78.7 | – | 265 | – | – | – |
| CUUAAAAGGUAGGAUAUGCUAGACGAAAGUCUAGCAGAAGGACCUACAUGAGGAUCACCCAUGUGUCCAAUAAG [Mat - Exclusion 6 - Eli Mod - D23] (Eterna round: R97, puzzle: Exclusion 6) | 50.6 | – | 86.3 | – | – | – |
| UAUUAACAAGCGAGAUCCCACAUGAGGAUCACCCAUGUGCUCGUCUUAUAAGGUACUGUGACGAUAGUCACGGUACC [Mat - Sensor, turn-off var - Eli Mod - D3] (Eterna round: R97, puzzle: Sensor, turn-off variant 1) | 14.5 | – | 13.8 | – | – | – |
| CAGUACUGAGGAUAUACAUGAGGAUCACCCAUGUGUUCCAGCUAGGAAACGAGCAAAAGUAGAAGGCAGUACUG [salish99_ex3_r3_071] (puzzle: Exclusion 3) | – | – | – | – | 19.7 | – |
